Reference: US20180327506A1 (AbbVie / Abbott, published 2018)

T1: full-length mature cynomolgus EMR2 (residues Q24-N816) with N-terminal aspartic acid/lysine epitope tag, … (cynomolgus monkey (Macaca fascicularis), UniProt A0A2K5WL23 21-816)
T1 construct: whole, on cells; also called cEMR2; cEMR2-NFlag
T1 sequence: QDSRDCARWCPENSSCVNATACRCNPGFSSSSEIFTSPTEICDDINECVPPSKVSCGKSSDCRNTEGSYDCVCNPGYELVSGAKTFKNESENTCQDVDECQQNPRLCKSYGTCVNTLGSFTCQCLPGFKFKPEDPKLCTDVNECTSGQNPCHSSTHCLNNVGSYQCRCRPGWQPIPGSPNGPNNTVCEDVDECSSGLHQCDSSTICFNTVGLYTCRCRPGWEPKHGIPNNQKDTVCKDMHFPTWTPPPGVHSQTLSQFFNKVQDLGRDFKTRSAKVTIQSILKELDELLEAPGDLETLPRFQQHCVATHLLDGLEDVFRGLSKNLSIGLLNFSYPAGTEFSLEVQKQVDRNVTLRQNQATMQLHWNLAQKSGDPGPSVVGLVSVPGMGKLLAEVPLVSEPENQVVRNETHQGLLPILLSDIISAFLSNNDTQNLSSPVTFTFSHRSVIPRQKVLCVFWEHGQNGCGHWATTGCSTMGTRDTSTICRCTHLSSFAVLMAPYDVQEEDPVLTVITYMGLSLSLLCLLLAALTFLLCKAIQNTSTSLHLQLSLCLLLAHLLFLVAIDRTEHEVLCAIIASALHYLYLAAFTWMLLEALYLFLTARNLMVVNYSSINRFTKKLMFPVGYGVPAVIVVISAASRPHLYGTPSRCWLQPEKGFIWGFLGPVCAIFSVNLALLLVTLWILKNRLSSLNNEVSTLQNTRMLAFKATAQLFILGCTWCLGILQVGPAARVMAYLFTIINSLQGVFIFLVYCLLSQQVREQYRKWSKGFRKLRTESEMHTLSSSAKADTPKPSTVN

T2: full-length mature human CD97 (residues Q21-I845) with N-terminal aspartic acid/lysine epitope tag, … (human, UniProt P48960 21-835)
T2 construct: whole, on cells; also called hCD97; hCD97-NFlag
T2 sequence (looked up): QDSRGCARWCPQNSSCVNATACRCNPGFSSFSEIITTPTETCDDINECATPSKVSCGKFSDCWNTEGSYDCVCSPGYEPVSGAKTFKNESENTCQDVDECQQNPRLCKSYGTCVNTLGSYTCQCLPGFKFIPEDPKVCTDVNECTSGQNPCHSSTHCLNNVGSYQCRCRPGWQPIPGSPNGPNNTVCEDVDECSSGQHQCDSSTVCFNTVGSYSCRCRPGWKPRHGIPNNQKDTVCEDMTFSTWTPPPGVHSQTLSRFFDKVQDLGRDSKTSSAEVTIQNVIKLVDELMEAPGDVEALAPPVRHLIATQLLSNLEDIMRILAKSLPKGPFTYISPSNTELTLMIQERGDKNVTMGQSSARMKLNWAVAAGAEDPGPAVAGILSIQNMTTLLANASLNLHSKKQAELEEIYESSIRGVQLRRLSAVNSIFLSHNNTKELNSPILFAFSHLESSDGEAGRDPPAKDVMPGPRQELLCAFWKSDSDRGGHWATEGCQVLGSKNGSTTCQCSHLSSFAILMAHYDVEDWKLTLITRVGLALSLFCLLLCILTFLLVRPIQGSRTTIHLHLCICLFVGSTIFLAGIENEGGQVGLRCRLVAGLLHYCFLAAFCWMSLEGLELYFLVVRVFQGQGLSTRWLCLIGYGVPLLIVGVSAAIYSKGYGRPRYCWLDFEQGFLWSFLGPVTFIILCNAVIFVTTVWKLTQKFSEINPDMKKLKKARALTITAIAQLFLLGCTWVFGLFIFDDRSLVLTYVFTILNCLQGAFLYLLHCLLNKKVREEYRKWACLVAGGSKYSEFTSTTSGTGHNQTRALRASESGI

T3: full-length mature human EMR2 (residues Q24-N823) with N-terminal aspartic acid/lysine epitope tag, … (human, UniProt Q9UHX3 24-823)
T3 construct: Built from NM_013447; The IgK signal peptide is not part of the mature protein; also called hEMR2; hEMR2-NFlag
T3 sequence: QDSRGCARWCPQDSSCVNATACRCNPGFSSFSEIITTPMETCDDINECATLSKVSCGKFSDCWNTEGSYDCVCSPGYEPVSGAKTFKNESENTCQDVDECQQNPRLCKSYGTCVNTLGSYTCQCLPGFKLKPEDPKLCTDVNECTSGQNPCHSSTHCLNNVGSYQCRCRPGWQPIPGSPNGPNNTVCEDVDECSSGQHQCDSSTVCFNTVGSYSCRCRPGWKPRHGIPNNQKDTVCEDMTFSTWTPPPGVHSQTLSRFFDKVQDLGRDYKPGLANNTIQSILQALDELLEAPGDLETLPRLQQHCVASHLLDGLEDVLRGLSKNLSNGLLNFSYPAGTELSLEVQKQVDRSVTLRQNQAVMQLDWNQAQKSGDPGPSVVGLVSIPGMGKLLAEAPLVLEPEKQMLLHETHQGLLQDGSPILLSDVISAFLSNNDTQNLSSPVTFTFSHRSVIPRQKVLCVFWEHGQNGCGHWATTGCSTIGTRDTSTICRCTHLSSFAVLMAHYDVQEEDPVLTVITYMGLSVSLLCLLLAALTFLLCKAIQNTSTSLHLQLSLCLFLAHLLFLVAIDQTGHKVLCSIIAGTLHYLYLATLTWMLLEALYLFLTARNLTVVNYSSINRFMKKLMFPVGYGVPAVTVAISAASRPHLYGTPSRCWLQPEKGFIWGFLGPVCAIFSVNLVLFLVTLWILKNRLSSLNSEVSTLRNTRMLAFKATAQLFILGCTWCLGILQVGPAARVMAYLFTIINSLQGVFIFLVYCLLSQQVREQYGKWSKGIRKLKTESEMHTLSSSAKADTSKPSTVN

T4: human EMR2 as naturally expressed on primary and PDX tumor cells, blood and bone marrow cells and hematologic … (human, UniProt Q9UHX3 24-823)
T4 construct: Endogenous protein; also called hEMR2; CD312
T4 sequence: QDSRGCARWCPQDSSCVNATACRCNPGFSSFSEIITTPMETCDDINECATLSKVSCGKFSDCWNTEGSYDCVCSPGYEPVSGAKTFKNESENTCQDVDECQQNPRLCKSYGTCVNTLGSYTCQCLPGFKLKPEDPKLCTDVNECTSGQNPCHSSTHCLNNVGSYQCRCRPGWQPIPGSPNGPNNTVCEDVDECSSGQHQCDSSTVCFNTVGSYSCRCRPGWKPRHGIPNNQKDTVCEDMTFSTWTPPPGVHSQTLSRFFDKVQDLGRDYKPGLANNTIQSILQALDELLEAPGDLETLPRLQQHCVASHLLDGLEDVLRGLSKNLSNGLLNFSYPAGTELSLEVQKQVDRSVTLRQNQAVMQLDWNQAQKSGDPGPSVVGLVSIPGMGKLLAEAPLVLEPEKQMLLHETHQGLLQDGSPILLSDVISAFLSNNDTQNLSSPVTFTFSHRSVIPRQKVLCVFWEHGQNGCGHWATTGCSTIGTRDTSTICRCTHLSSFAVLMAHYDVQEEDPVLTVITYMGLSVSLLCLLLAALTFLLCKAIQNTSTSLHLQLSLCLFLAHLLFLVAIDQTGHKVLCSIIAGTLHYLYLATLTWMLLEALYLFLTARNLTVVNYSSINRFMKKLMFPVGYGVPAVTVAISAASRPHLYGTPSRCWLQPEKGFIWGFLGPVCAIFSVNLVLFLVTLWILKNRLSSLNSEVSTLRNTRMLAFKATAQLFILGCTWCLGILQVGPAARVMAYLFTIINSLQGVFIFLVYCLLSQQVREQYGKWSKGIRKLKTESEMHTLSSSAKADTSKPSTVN


Experiments:
[1] = molecular target: T1, full-length mature cynomolgus EMR2 …; assay: flow cytometry on transduced HEK293T; 293 naive MFI 269
Method: (§1) The exemplary antibodies were also tested using flow cytometry to determine their ability to associate with hEMR2, cEMR2 and CD97 expressed on the surface of cells.

[2] = molecular target: T2, full-length mature human CD97 (residues …); assay: as above
Method: as §1

[3] = molecular target: T3, full-length mature human EMR2 (residues …); assay: as above
Method: as §1

[4] = molecular target: T1, full-length mature cynomolgus EMR2 …; assay: cell-based or functional assay
[5] = molecular target: T2, full-length mature human CD97 (residues …); assay: cell-based or functional assay
[6] = molecular target: T3, full-length mature human EMR2 (residues …); assay: cell-based or functional assay
[7] = molecular target: T1, full-length mature cynomolgus EMR2 …; assay: flow cytometry on transduced HEK293T; 293 naive MFI 109
Method: as §1

[8] = molecular target: T2, full-length mature human CD97 (residues …); assay: as above
Method: as §1

[9] = molecular target: T3, full-length mature human EMR2 (residues …); assay: as above
Method: as §1

[10] = molecular target: T4, human EMR2 as naturally expressed on …; assay: flow cytometry on AML37p0 cells, against isotype control
Method: (§2) AML PDX samples were harvested by extracting both femora and tibiae from a mouse. After removing any attached muscle tissue the bones were combined and grinded up using a mortar and pistil to release the bone marrow from the rest of the bone. Cell suspensions were harvested and red blood cells lysed by exposure to a hypotonic ammonium-chloride-potassium solution (ACK). After 5 min incubation on ice the red blood cell lysis was stopped by adding 2% fetal bovine serum in PBS buffer (FSM), cells harvested by centrifugation and any tissue debris filtered out using a nylon mesh. Primary human AML samples were obtained cryopreserved as Ficol isolated mononuclear cells, thawed, washed once in FSM and used for analysis. Single cell suspensions were incubated with 4′,6-diamidino-2-phenylindole (DAPI) to detect dead cells, anti-human CD45 and CD33 to identify human leukemic cells. […] In order to partition bulk AML leukemic populations into NTG and CSC subpopulations, the PDX tumor cells were further incubated with anti-human CD34 and CD38 or candidate AML CSC markers.

[11] = molecular target: T4, human EMR2 as naturally expressed on …; assay: flow cytometry on AML33p0 cells, against isotype control
Method: as §2

[12] = molecular target: T4, human EMR2 as naturally expressed on …; assay: flow cytometry on AML40p0 cells, against isotype control
Method: AML PDX samples were harvested by extracting both femora and tibiae from a mouse. After removing any attached muscle tissue the bones were combined and grinded up using a mortar and pistil to release the bone marrow from the rest of the bone. Cell suspensions were harvested and red blood cells lysed by exposure to a hypotonic ammonium-chloride-potassium solution (ACK). After 5 min incubation on ice the red blood cell lysis was stopped by adding 2% fetal bovine serum in PBS buffer (FSM), cells harvested by centrifugation and any tissue debris filtered out using a nylon mesh. Primary human AML samples were obtained cryopreserved as Ficol isolated mononuclear cells, thawed, washed once in FSM and used for analysis. Single cell suspensions were incubated with 4′,6-diamidino-2-phenylindole (DAPI) to detect dead cells, anti-human CD45 and CD33 to identify human leukemic cells. The resulting single cell suspensions comprised a bulk sample of tumor and non-tumor cells including both NTG cells and CSCs. In order to partition bulk AML leukemic populations into NTG and CSC subpopulations, the PDX tumor cells were further incubated with anti-human CD34 and CD38 or candidate AML CSC markers.

[13] = molecular target: T4, human EMR2 as naturally expressed on …; assay: flow cytometry on AML23p2 PDX cells, against isotype control
Method: as §2

[14] = molecular target: T4, human EMR2 as naturally expressed on …; assay: flow cytometry on AML16-p4 PDX cells, against isotype control
Method: as §2

[15] = molecular target: T4, human EMR2 as naturally expressed on …; assay: flow cytometry on AML20p4 PDX cells, against isotype control
Method: as §2

[16] = molecular target: T1, full-length mature cynomolgus EMR2 …; assay: flow cytometry on transduced HEK293T; 293 naive MFI 143
Method: as §1

[17] = molecular target: T2, full-length mature human CD97 (residues …); assay: as above
Method: as §1

[18] = molecular target: T3, full-length mature human EMR2 (residues …); assay: as above
Method: as §1

| FC MFI [1] | FC MFI [2] | FC MFI [3] | FC MFI [7] | FC MFI [8] | FC MFI [9] | ΔgMFI [10] | ΔgMFI [11] | ΔgMFI [12] | ΔgMFI [13] | ΔgMFI [14] | ΔgMFI [15] | FC MFI [16] | FC MFI [17] | FC MFI [18] | Binder | % live, FAB-saporin killing assay [4] [%] | % live, FAB-saporin killing assay [5] [%] | % live, FAB-saporin killing assay [6] [%] |
| --- | --- | --- | --- | --- | --- | --- | --- | --- | --- | --- | --- | --- | --- | --- | --- | --- | --- | --- |
| 43800 | 43300 | 36400 | – | – | – | – | – | – | – | – | – | – | – | – | SC93.255 (antibody, V domains shown, Murine hybridoma antibody with a kappa light chain) VH: QVQLQQSDAELVKPGSSVKISCKVSGFTFTDHTIHWMKQRPEQGLEWIGYIYPRDGNTKYNEKFTGKATLTADRSSSTAYMQLNSLTSEDSAVYFCASSNWAQWYFDIWGTGTTVTVSS VL: DIQMTQSSSYLSVSLGGRVTITCKASDHINNWLAWYQQKPGNAPRLLIFGATSLETGVPSRFSGSGSGKDYTLSITSLQSEDVGTYYCQQYWSIPYTFGGGTKLEIK | 9.63 | 9.09 | 12.1 |
| – | – | – | 37600 | 88.3 | 42600 | – | – | – | – | – | – | – | – | – | SC93.256 (antibody, IgG2a, V domains shown, murine, IgG2a) VH: EVKLEESGGGLVQPGGSMKLSCAASGFTFSDAWMDWVRQSPEKGLEWVAEIRSKVNNHETYYAESVKGRFTISRDDSKSSVYLQMNSLRAEDTGIYYCIRNDYFDYWGQGTTLTVSS VL: DIQMTQTTSSLSASLGDRVTISCSASQGIRNYLNWYQQKPDGTVKLLIYYTSRLHSGVPSRFSGSGSGTDYSLTISNLEPEDIATYYCQQYGKLPYTFGGGTKLEIK | 12.3 | 92.4 | 12.5 |
| – | – | – | – | – | – | 1610 | 457 | 2000 | 547 | 898 | 475 | 38700 | 132 | 36600 | SC93.267 (antibody, V domains shown, Murine hybridoma antibody with a kappa light chain; also called anti-hEMR2 antibody SC93.267) VH: EVQLQQSGPELVKPGASVRMSCKASGYTFTDYNMYWVKQSLGKSLEWIGYIYPNTGGATYNQKFKGKATLTVNKSSSTAFMELRSLTSEDSAVYYCGRGGLGPFAYWGQGTLVTVSA VL: DIQMTQSPSSLSASLGGKVTITCRASQDINKFISWYQHRPGKGPRLLIHYASTLQPGIPSRFSGSGSGRDYSFSISNLEPEDIATYYCLQYDNLWTFGGGTKLEIR | 27.8 | 89 | 15.6 |
